The values below come from WO2022154037A1 (dated 2022).

Assay [1] addresses T1, antigen peptide in which Ser510 is not phosphorylated (non-phosphorylated LRH1 peptide) (human).
T1 construct: also called non-pS510-LRH1 peptide; peptide containing a non-phosphorylated product of serine at position 510
T1 peptide: RLPEIRAISMQAEE
Nature of the assay: ELISA, concentration series of peptide, purified antibody. Background: ELISA stands for enzyme-linked immunosorbent assay.

Assay [2] concerns the target T2, mutant LRH1 (LRH1S510E; constitutive phosphorylated product) (human, UniProt O00482 1-541).
T2 construct: It is a nuclear protein, not on the cell surface; also called HEK293T:LRH1S510E
Nature of the assay: immunohistochemical staining of HEK293T cell block sections expressing LRH1S510E.

T2 sequence (O00482 whole entry S510E): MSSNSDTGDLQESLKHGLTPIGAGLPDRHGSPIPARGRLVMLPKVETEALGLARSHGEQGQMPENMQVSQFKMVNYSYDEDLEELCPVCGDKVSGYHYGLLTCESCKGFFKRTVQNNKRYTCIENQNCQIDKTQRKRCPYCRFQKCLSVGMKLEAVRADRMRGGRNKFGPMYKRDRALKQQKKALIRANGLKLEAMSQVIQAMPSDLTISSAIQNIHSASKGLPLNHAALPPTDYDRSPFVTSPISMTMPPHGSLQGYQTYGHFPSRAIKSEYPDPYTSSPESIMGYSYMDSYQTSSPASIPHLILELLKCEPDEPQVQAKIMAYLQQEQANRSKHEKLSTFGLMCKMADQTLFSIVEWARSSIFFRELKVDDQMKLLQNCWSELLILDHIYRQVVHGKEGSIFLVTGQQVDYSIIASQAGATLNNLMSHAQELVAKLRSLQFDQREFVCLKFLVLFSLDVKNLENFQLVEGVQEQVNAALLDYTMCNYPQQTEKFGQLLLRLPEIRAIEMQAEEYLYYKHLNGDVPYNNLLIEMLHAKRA

B1: anti-pSer510-LRH1 monoclonal antibody clone 55 (FMU-P2-C2) (antibody, V domains shown)
VH: EVKLVESGGGLVQPGGSLRLSCAASGFTFADFYMSWIRQSPGKAPEWLSFIRNKAKSYTTEYNPSVKGRFTISRDDTQNVLYLQMNTLRAEDTAIYYCAKHERGGAGDYWGQGVMVTVSL
VL: DIQMTQSPASLSASPEEIVTITCQASQDIGNWLTWYQQKPGKSPQLLIYSATSLADGIPSRFSGSRSGTQYSLKISRLQVEDTGIYYCLQRYSNPLTFGSGTKLEIK
notes: Rat monoclonal antibody from a hybridoma (Wistar rat iliac lymph node cells fused with mouse myeloma SP2), detected with anti-rat IgG secondary antibodies; also called rat anti-pSer510-LRH1 monoclonal antibody clone 55; purified anti-pSer510-LRH1 monoclonal antibody
In the case of B1, the binding result in assay [1] is “no binding”; in assay [2] it was “binds”.
